Consider 1 molecule from US20220119490A1 (Genentech, published 2022).

The target in experiment [1] is T1, PTPRD R232C R233C variant extracellular domain (human, UniProt P23468 21-1265).
T1 construct: extracellular domain; also called R232C/R233C double mutant; IG2 mutant
T1 sequence (looked up): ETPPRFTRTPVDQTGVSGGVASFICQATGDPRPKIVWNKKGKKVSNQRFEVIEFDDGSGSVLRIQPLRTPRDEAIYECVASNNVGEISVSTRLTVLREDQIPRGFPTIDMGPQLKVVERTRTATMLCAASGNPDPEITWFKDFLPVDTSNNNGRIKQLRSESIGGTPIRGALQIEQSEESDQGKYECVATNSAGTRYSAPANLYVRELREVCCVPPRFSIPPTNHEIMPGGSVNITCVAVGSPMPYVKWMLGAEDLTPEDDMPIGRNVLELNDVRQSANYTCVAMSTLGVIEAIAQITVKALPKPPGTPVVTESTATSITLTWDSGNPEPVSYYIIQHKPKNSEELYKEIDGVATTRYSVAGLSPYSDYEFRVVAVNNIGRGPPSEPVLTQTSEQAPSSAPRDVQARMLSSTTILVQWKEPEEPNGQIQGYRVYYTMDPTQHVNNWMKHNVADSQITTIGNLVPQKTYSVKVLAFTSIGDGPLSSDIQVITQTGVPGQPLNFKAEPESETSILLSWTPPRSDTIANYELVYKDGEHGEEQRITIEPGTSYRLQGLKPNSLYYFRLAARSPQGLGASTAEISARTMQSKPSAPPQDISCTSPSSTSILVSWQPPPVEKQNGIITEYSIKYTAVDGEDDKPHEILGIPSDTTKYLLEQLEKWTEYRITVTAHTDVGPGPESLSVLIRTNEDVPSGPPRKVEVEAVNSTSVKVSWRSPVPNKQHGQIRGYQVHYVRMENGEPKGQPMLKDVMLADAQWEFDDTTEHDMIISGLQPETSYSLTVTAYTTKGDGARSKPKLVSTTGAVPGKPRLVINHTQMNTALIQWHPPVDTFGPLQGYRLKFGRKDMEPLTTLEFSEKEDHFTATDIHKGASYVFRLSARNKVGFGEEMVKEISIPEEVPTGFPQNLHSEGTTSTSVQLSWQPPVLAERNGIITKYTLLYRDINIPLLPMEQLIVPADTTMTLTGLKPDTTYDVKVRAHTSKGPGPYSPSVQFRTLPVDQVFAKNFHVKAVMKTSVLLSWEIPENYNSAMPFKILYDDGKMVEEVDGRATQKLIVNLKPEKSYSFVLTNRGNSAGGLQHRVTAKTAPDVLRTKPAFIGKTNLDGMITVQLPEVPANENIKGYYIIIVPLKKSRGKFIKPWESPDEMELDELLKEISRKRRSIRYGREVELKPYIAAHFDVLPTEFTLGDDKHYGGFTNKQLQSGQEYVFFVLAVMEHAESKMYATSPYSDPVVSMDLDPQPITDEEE
The experiment can be described thus: extracellular interaction screen: pentameric PTPRD variant ECD on ECD-Fc prey (FIG. 5L).

In experiment [2] the target is T2, PTPRD S431L variant extracellular domain (human, UniProt P23468 21-1265).
T2 construct: extracellular domain; also called FN2 mutant
T2 sequence (looked up): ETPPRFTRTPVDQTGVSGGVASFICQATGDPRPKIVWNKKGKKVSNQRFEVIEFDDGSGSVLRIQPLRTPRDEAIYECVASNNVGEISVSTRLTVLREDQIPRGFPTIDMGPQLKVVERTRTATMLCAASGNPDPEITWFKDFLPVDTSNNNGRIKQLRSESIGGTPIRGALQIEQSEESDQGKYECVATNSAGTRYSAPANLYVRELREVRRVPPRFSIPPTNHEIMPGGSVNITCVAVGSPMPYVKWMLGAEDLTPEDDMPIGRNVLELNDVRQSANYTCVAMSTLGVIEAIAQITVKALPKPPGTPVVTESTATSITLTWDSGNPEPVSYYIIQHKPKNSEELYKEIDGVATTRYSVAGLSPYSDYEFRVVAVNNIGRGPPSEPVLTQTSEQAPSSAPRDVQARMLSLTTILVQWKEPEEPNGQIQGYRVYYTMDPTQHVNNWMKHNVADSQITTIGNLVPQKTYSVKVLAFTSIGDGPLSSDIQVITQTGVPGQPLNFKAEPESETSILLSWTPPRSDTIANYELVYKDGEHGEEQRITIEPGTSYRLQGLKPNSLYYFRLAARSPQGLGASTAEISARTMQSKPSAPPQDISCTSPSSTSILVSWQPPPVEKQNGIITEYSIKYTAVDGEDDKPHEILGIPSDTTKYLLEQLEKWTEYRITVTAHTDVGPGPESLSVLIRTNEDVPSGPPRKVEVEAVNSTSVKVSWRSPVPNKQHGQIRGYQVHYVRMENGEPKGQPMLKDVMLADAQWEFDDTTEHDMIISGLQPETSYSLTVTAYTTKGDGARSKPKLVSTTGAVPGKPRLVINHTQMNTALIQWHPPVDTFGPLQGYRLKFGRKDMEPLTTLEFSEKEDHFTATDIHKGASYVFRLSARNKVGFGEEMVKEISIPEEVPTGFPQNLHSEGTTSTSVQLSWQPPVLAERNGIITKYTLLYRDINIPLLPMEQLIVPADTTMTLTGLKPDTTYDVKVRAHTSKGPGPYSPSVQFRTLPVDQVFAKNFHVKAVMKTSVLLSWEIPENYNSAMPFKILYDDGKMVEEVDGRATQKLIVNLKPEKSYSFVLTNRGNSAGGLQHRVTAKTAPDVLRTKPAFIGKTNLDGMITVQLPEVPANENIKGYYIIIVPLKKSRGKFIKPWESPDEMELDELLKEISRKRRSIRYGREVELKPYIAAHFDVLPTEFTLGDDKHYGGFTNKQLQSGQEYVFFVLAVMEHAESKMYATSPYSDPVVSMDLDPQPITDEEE
Described as above.

B1: LRRC4B extracellular domain (receptor, human, UniProt Q9NT99 36-576, looked up)
chain: AGGGGVAVTSAAGGGSPPATSCPVACSCSNQASRVICTRRDLAEVPASIPVNTRYLNLQENGIQVIRTDTFKHLRHLEILQLSKNLVRKIEVGAFNGLPSLNTLELFDNRLTTVPTQAFEYLSKLRELWLRNNPIESIPSYAFNRVPSLRRLDLGELKRLEYISEAAFEGLVNLRYLNLGMCNLKDIPNLTALVRLEELELSGNRLDLIRPGSFQGLTSLRKLWLMHAQVATIERNAFDDLKSLEELNLSHNNLMSLPHDLFTPLHRLERVHLNHNPWHCNCDVLWLSWWLKETVPSNTTCCARCHAPAGLKGRYIGELDQSHFTCYAPVIVEPPTDLNVTEGMAAELKCRTGTSMTSVNWLTPNGTLMTHGSYRVRISVLHDGTLNFTNVTVQDTGQYTCMVTNSAGNTTASATLNVSAVDPVAAGGTGSGGGGPGGSGGVGGGSGGYTYFTTVTVETLETQPGEEALQPRGTEKEPPGPTTDGVWGGGRPGDAAGPASSSTTAPAPRSSRPTEKAFTVPITDVTENALKDLDDVMKTTK
notes: extracellular domain; ECD-Fc prey; also called NGL-3; netrin-G ligand-3
On to B1, for which the binding result in experiment [1] and in experiment [2] was “no binding” throughout.
